Data from paper doi:10.1101/2024.09.13.612963 (bioRxiv, 2024).

Biological target: T1, TRAK1-mScarlet (wild type, truncated before the mitochondrial binding domain) (human, UniProt Q9UPV9 1-702)
T1 sequence (looked up): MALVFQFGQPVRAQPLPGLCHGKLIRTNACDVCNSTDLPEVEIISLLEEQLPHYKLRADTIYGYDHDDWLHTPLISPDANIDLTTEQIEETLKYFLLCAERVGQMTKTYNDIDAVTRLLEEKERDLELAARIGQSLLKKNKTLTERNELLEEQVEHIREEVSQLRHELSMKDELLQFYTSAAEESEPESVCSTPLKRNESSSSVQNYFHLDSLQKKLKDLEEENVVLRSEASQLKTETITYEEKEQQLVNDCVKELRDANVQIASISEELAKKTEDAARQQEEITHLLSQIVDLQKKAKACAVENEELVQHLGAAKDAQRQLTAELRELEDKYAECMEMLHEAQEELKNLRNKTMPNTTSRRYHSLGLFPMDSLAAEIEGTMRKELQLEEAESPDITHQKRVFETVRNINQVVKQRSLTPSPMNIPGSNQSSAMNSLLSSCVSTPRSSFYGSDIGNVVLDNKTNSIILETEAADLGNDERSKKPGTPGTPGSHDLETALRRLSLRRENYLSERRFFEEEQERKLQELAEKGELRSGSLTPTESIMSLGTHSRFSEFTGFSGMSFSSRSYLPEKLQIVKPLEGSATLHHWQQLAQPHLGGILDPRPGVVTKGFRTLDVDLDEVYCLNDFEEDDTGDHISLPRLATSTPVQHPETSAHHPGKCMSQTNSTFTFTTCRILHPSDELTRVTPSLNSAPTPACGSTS
Assay: co-IP

fold enrichment against TRAK2-driven synthetic cargo: ~20 fold
B1: kinesin-1 (KIF5B) (natural protein, human (endogenous in hTERT RPE-1), UniProt P33176 1-963, looked up)
chain: MADLAECNIKVMCRFRPLNESEVNRGDKYIAKFQGEDTVVIASKPYAFDRVFQSSTSQEQVYNDCAKKIVKDVLEGYNGTIFAYGQTSSGKTHTMEGKLHDPEGMGIIPRIVQDIFNYIYSMDENLEFHIKVSYFEIYLDKIRDLLDVSKTNLSVHEDKNRVPYVKGCTERFVCSPDEVMDTIDEGKSNRHVAVTNMNEHSSRSHSIFLINVKQENTQTEQKLSGKLYLVDLAGSEKVSKTGAEGAVLDEAKNINKSLSALGNVISALAEGSTYVPYRDSKMTRILQDSLGGNCRTTIVICCSPSSYNESETKSTLLFGQRAKTIKNTVCVNVELTAEQWKKKYEKEKEKNKILRNTIQWLENELNRWRNGETVPIDEQFDKEKANLEAFTVDKDITLTNDKPATAIGVIGNFTDAERRKCEEEIAKLYKQLDDKDEEINQQSQLVEKLKTQMLDQEELLASTRRDQDNMQAELNRLQAENDASKEEVKEVLQALEELAVNYDQKSQEVEDKTKEYELLSDELNQKSATLASIDAELQKLKEMTNHQKKRAAEMMASLLKDLAEIGIAVGNNDVKQPEGTGMIDEEFTVARLYISKMKSEVKTMVKRCKQLESTQTESNKKMEENEKELAACQLRISQHEAKIKSLTEYLQNVEQKKRQLEESVDALSEELVQLRAQEKVHEMEKEHLNKVQTANEVKQAVEQQIQSHRETHQKQISSLRDEVEAKAKLITDLQDQNQKMMLEQERLRVEHEKLKATDQEKSRKLHELTVMQDRREQARQDLKGLEETVAKELQTLHNLRKLFVQDLATRVKKSAEIDSDDTGGSAAQKQKISFLENNLEQLTKVHKQLVRDNADLRCELPKLEKRLRATAERVKALESALKEAKENASRDRKRYQQEVDRIKEAVRSKNMARRGHSAQIAKPIRPGQHPAASPTHPSAIRGGGAFVQNSQPVAVRGGGGKQV
